Laboratory results: patent publication EP4818204A1 (Nanjing Leads Biolabs Co., Ltd., dated 2026)
Like-named read-outs stand apart in the source and are kept apart here.

T1: human GDNF protein (human, UniProt P39905 78-211)
T1 construct: Bought
T1 sequence (looked up): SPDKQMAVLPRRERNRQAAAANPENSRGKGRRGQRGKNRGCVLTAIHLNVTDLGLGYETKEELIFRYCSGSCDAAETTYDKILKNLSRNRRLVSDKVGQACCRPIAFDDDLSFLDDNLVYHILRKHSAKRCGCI

T2: human GDF1 protein (human, UniProt P27539 254-372, limits assumed)
T2 construct: Bought
T2 sequence (looked up): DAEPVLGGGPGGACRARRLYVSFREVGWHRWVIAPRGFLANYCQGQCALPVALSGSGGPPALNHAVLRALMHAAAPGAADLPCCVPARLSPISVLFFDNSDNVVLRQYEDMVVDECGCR

T3: Human GDF15 protein (human, UniProt Q99988 197-308)
T3 construct: Natural GDF15 is said to be a disulfide-linked homodimer; also called Human-GDF15-his
T3 sequence: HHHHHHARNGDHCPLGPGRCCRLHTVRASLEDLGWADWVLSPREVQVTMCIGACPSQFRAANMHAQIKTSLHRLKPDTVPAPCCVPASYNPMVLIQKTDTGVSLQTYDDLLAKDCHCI

T4: human GFRα1 protein (human, UniProt P56159 25-429, limits assumed)
T4 construct: Bought
T4 sequence (looked up): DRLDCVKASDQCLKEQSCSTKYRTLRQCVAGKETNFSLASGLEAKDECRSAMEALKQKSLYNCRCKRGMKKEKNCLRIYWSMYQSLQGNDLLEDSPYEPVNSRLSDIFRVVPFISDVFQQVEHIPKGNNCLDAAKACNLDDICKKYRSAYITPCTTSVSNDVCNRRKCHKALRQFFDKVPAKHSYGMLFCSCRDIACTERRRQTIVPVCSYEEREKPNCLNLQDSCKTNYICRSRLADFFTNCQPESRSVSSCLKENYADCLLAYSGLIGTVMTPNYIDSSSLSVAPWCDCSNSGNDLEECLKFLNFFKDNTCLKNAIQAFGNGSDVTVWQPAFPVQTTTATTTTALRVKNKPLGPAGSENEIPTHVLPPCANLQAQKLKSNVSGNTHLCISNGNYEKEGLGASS

T5: human GDF11 protein (human, UniProt O95390 299-407)
T5 construct: Bought
T5 sequence (looked up): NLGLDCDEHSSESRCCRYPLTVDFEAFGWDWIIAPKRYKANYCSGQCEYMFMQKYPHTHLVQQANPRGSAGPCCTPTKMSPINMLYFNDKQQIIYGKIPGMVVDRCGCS

T6: human GDF3 protein (human, UniProt Q9NR23 251-364, limits assumed)
T6 construct: Bought
T6 sequence (looked up): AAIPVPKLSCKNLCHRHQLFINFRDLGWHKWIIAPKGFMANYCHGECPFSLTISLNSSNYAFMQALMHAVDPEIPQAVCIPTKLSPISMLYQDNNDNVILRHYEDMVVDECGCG

T7: human Activin B protein (human, UniProt P09529 293-407)
T7 construct: Bought; Activin B is by nature a dimer of inhibin beta B chains
T7 sequence (looked up): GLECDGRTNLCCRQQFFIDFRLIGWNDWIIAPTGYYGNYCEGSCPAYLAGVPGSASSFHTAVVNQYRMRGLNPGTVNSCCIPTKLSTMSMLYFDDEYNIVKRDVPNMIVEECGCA

T8: human GDF2 protein (human, UniProt Q9UK05 320-429)
T8 construct: Bought
T8 sequence (looked up): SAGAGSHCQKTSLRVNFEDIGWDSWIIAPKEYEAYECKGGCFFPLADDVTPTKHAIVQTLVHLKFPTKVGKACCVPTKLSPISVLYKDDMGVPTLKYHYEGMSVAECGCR


Columns and labels:
human GDNF protein [1] = target: T1, human GDNF protein; test: ELISA, coated protein
[2] = target: human AMH protein (human) (UniProt P03971); test: ELISA, coated protein, antibody at 4 µg/mL
[3] = target: human GDF8 protein (human) (UniProt O14793); test: ELISA, coated protein, antibody at 4 µg/mL
human GDF1 protein [4] = target: T2, human GDF1 protein; test: ELISA, coated protein, antibody at 4 µg/mL
Human GDF15 protein [5] = target: T3, Human GDF15 protein; test: ELISA, coated protein, antibody at 4 µg/mL
human GDNF protein [6] = target: T1, human GDNF protein; test: ELISA, coated protein, antibody at 4 µg/mL
human GFRα1 protein = target: T4, human GFRα1 protein; test: ELISA, coated protein, antibody at 4 µg/mL
human GDF11 protein [7] = target: T5, human GDF11 protein; test: ELISA, coated protein, antibody at 4 µg/mL
human GDF3 protein = target: T6, human GDF3 protein; test: ELISA, coated protein, antibody at 4 µg/mL
human Activin B protein = target: T7, human Activin B protein; test: ELISA, coated protein, antibody at 4 µg/mL
human GDNF protein [8] = target: T1, human GDNF protein; test: ELISA, coated protein, antibody at 4 µg/mL; remark: listed apart in the source
[9] = target: human AMH protein (human) (UniProt P03971); test: ELISA, coated protein, antibody at 4 µg/mL; remark: listed apart in the source
[10] = target: human GDF8 protein (human) (UniProt O14793); test: ELISA, coated protein, antibody at 4 µg/mL; remark: listed apart in the source
human GDF2 protein = target: T8, human GDF2 protein; test: ELISA, coated protein, antibody at 4 µg/mL
human GDF1 protein [11] = target: T2, human GDF1 protein; test: ELISA, coated protein, antibody at 4 µg/mL; remark: listed apart in the source
human BMP2 protein = target: T9, human BMP2 protein (human, UniProt P12643 283-396); test: ELISA, coated protein, antibody at 4 µg/mL
T9 construct: Bought
T9 sequence (P12643 283-396 limits assumed): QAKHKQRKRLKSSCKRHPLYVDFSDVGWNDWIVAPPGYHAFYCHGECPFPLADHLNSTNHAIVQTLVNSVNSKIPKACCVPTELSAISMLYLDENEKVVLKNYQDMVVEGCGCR

Human GDF15 protein [12] = target: T3, Human GDF15 protein; test: ELISA, coated protein, antibody at 4 µg/mL; remark: listed apart in the source
human GDNF protein [13] = target: T1, human GDNF protein; test: ELISA, coated protein, antibody at 4 µg/mL; remark: listed apart in the source
human GDF11 protein [14] = target: T5, human GDF11 protein; test: ELISA, coated protein, antibody at 4 µg/mL; remark: listed apart in the source
human TGFβ1 protein = target: T10, human TGFβ1 protein (human, UniProt P01137 279-390); test: ELISA, coated protein, antibody at 4 µg/mL
T10 construct: Bought
T10 sequence (P01137 279-390 limits assumed): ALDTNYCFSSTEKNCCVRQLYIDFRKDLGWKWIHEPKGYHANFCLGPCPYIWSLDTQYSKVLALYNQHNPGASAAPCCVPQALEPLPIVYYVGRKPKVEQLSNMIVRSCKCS

human FcRn protein = target: T11, human FcRn protein (human, UniProt P55899 24-297); test: BLI (Octet RED96e), FcRn on SA sensor, antibody as analyte, binding and dissociation at pH 6.0, 1:1 model
T11 construct: Bought, loaded on a streptavidin (SA) sensor; FcRn is by nature a heterodimer with beta-2-microglobulin
T11 sequence (P55899 24-297 limits assumed, form in doubt): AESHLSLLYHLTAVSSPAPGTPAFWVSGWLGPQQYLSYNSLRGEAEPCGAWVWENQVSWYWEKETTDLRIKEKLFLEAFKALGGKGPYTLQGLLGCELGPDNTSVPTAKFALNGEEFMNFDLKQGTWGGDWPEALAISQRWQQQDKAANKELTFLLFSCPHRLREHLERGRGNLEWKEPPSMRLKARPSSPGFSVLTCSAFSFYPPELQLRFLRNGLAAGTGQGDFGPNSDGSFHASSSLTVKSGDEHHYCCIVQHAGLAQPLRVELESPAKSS

| binding result (human GDNF protein [1]) | OD value (OD 450 nm-620 nm) [2] | OD value (OD 450 nm-620 nm) [3] | OD value (human GDF1 protein [4]) [OD 450 nm-620 nm] | OD value (Human GDF15 protein [5]) [OD 450 nm-620 nm] | OD value (human GDNF protein [6]) [OD 450 nm-620 nm] | OD value (human GFRα1 protein) [OD 450 nm-620 nm] | OD value (human GDF11 protein [7]) [OD 450 nm-620 nm] | OD value (human GDF3 protein) [OD 450 nm-620 nm] | OD value (human Activin B protein) [OD 450 nm-620 nm] | Binder | other results |
| --- | --- | --- | --- | --- | --- | --- | --- | --- | --- | --- | --- |
| no binding (tested: 4 µg/mL) | 0.0537 | 0.0426 | 0.0412 | 3.17 | 0.105 | 0.0655 | 0.0426 | 0.041 | 0.0899 | Hu21H6D2 (antibody, human IgG1, kappa, V domains shown, Humanized form of murine 21H6D2; human IgG1 constant region with L234A, L235A, G237A and kappa light chain constant region; also called hu21H6D2-IgG1-mut(L234A,L235A,G237A)) VH: QVQLVQSGAEVKKPGASVKVSCKASGYTFTGYIMNWVRQAPGQRLEWMGDIDPYYGDAKYNQKFKGKVTITVDKSASTAYMELSSLRSEDTAVYYCARRDYDHGSFAYWGQGTLVTVSS VL: EIVLTQSPDFQSVTPKEKVTITCSASSSVNYMHWYQQKPDQSPKRLIYDTSKLASGVPSRFSGSGSGTDYTLTINSLEAEDAATYYCQQWSSNPPTFGQGTKLEIKR | – |
| – | 0.0485 | 0.0421 | 0.0504 | 3.21 | – | 0.27 | 0.04 | 0.0406 | 0.062 | HuVHH43-3 (Fc fusion, also called huVHH43-IgG1-mut(L234A,L235A,G237A); VHH humanized anti-GDF15 antibody) heavy: QLQLVESGGGLVQPGGSLRLSCAASGHTYGMGWFRQAPGKAREIVSAISRSGSSTYYADSVKGRFTISRDNSKNTLYLQMNSLRAEDTAVYICGASTSALVPTTTGMYAYWGQGTRVTVSSEPKSSDKTHTCPPCPAPEAAGAPSVFLFPPKPKDTLMISRTPEVTCVVVDVSHEDPEVKFNWYVDGVEVHNAKTKPREEQYNSTYRVVSVLTVLHQDWLNGKEYKCKVSNKALPAPIEKTISKAKGQPREPQVYTLPPSREEMTKNQVSLTCLVKGFYPSDIAVEWESNGQPENNYKTTPPVLDSDGSFFLYSKLTVDKSRWQQGNVFSCSVMHEALHNHYTQKSLSLSPGK | OD value (OD 450 nm-620 nm) (human GDNF protein [8]): 0.273 |
| no binding (tested: 4 µg/mL) | 0.0464 | 0.0423 | 0.0433 | 3.27 | 0.0531 | 0.0468 | 0.0368 | 0.0418 | 0.136 | Hu19C4C7 (antibody, human IgG1, kappa, Humanized form of murine 19C4C7; human IgG1 constant region with L234A, L235A, G237A and kappa light chain constant region; also called hu19C4C7-IgG1-mut(L234A,L235A,G237A)) heavy: QVQLVQSGAEVKKPGSSVKVSCKASGYSFTGYIMNWVRQAPGQSLEWMGDIDPYYGGPNYNQKFQGRVTITVDKSTSTAYMELSSLRSEDTAVYYCSRRDYNYGSFAYWGQGTLVTVSSASTKGPSVFPLAPSSKSTSGGTAALGCLVKDYFPEPVTVSWNSGALTSGVHTFPAVLQSSGLYSLSSVVTVPSSSLGTQTYICNVNHKPSNTKVDKKVEPKSCDKTHTCPPCPAPEAAGAPSVFLFPPKPKDTLMISRTPEVTCVVVDVSHEDPEVKFNWYVDGVEVHNAKTKPREEQYNSTYRVVSVLTVLHQDWLNGKEYKCKVSNKALPAPIEKTISKAKGQPREPQVYTLPPSREEMTKNQVSLTCLVKGFYPSDIAVEWESNGQPENNYKTTPPVLDSDGSFFLYSKLTVDKSRWQQGNVFSCSVMHEALHNHYTQKSLSLSPGK light: QIVLTQSPATLSLSPGERATLSCRASSSVNYMHWYQQKPGQAPRPLIYATSNLATGIPARFSGSGSGTDYTLTISSLEPEDFAVYYCQQWSDNPPTFGQGTKLEIKRTVAAPSVFIFPPSDEQLKSGTASVVCLLNNFYPREAKVQWKVDNALQSGNSQESVTEQDSKDSTYSLSSTLTLSKADYEKHKVYACEVTHQGLSSPVTKSFNRGEC | OD value (OD 450 nm-620 nm) [9]: 0.0887; OD value (OD 450 nm-620 nm) [10]: 0.0505; OD value (human GDF2 protein): 0.0616 OD 450 nm-620 nm; OD value (human GDF1 protein [11]): 0.201 OD 450 nm-620 nm; OD value (human BMP2 protein): 0.0764 OD 450 nm-620 nm; OD value (Human GDF15 protein [12]): 2.47 OD 450 nm-620 nm; OD value (human GDNF protein [13]): 0.241 OD 450 nm-620 nm; OD value (human GDF11 protein [14]): 0.0735 OD 450 nm-620 nm; OD value (human TGFβ1 protein): 0.103 OD 450 nm-620 nm; Kd (human FcRn protein): 7.41 nM; koff (human FcRn protein): 0.0146 s⁻¹; kon (human FcRn protein): 1.97e+06 M⁻¹ s⁻¹ |
